From patent publication US20100196385A1 (AstraZeneca / MedImmune, published 2010) come the findings set out here.

Experiment [1] addresses T1, full length human DLL4 (human, UniProt Q9NR61 27-685).
T1 construct: whole, on cells; also called native DLL4 expressed in HEK293 cells
In words: FACS competition vs human Notch1/Fc, HEK293 cells with human DLL4. How it is done: Further experiments were performed on selected antibodies using HEK293 cells that were stably transfected with either human, mouse or cynomolgus monkey DLL4 using retroviral constructs. In these experiments, anti-DLL4 antibodies (final concentration: 10-0.01 μg/ml) diluted in PBS containing 2% FCS were added to DLL4-expressing HEK 293 cells (50000 cells/well diluted in PBS containing 2% FCS) and incubated for 1 h at 4° C. Subsequently, Alexa-647 labeled human, rat or APC labeled mouse Notch1/Fc (e.g. R&D Systems, catalog #3647-TK-050, 1057-TK-050, 5267-TK-050, respectively) was added at a final concentration of 0.01-0.5 μg/ml and plates were incubated for a further 2 h at 4° C. prior to washing and reading on a FACSCalibur instrument.

For experiment [2], the target named is T2, human soluble DLL4 (R&D systems catalog #1056-D4-050) (human, UniProt Q9NR61 27-524).
T2 construct: Catalog number as printed; perhaps the same product as #1506-D4; also called antigen DLL4
T2 sequence (Q9NR61 27-524 limits assumed): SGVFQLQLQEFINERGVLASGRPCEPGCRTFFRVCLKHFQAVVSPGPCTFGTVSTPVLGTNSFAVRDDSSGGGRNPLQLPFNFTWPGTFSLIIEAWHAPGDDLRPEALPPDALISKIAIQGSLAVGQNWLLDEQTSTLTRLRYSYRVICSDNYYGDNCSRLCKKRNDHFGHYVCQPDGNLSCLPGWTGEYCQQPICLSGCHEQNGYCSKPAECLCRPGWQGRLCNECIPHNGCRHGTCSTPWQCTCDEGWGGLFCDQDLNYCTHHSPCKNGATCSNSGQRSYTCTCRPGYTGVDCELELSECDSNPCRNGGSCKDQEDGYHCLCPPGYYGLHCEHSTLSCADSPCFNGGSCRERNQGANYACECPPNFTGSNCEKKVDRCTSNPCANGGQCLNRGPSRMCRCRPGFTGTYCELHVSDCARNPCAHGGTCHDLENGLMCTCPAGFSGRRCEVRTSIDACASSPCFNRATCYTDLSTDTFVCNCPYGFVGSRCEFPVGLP
In words: Biacore T100, antibody immobilised, soluble human DLL4 as analyte. How it is done:
For Biacore analysis, each purified anti-DLL4 antibody was immobilized on a CM5 sensor chip within a T100 using standard amine coupling. Immobilization levels were kept below 200 RU. The concentration of DLL4 was determined by UV-VIS spectroscopy using a molar absorptivity at 280 nm of 110, 440 M⁻¹cm⁻¹, which was calculated from the sequence of the protein using a method developed by Pace et al. (G. R. Grimsley and C. N. Pace (2003) in Current Protocols in Protein Science (John Wiley & Sons, Inc.), 3.1.1-3.1.9). The antigen DLL4 (R&D systems; human catalog #1056-D4-050 or mouse, catalog #1389-D4-050) was diluted to a starting concentration of 32-64 nM and tested in a 3-fold dilution series in triplicate. The running buffer contained HBS-P with 0.1 mg/ml BSA and binding responses were collected at 23° C. Bound complexes were regenerated with a 15 s pulse of 10 mM of sodium hydroxide. The response data were globally fitted with a simple 1:1 interaction model and Table 20 summarizes the kₐ, kd and KD estimates obtained for the anti-DLL4 antibodies when binding to human soluble DLL4 was assessed.

The target of experiment [3] is T1, full length human DLL4. Kind of experiment: FACS titration, HEK293 cells with human DLL4. As for the experimental part: The binding affinities of the purified antibodies for DLL4 was estimated using is both FACS and BIAcore techniques. […] The cells were then washed and incubated with goat anti-human IgG-Fc-Cy5+5 μg/mL 7-Amino-Actinomycin (7AAD) for 30 minutes at 4° C.
In this equation, F=mean fluorescence, LT=total molecular mAb concentration, P′=proportionality constant that relates arbitrary fluorescence units to bound mAb, M=cellular concentration in molarity, n=number of receptors per cell, B=background signal, and KD=equilibrium dissociation constant. For each mAb titration curve an estimate for KD is obtained as P′, n, B, and KD are allowed to float freely in the nonlinear analysis. Table 20 summarizes the affinity estimates for the anti-DLL4 antibodies for human and cynomolgus monkey DLL4 derived using the methodology described above

In experiment [4] the target is T1, full length human DLL4. Kind of experiment: FMAT competition, supernatant vs Alexa-647 human Notch1/Fc, 293T cells with human DLL4; FMAT competition with Alexa-647 human Notch1/Fc, native human DLL4 on 293T cells, 4 C, n = 3. As for the experimental part:
(§1) Transfected and untransfected 239T cells were reconstituted in PBS containing 2% FCS and 5000 transfected and 17500 non-transfected cells were plated in 20 μl into wells of a 384-well tissue culture plate (Corning Costar, catalog #3712). Subsequently, 20 μl of hybridoma supernatant was added and plates were incubated at 4° C. for 1 h, at which time 20 μl of Alexa-647 labeled human Notch1/Fc was added at a final concentration of 6.7 ng/ml. After a further 3 h incubation at 4° C., the amount of bound Notch1/Fc was determined by reading the fluorescence in each well using an FMAT 8200 instrument (Applied Biosystems). Results are expressed as % inhibitions with the minimum inhibition in the assay being determined by the effects of non-DLL4 binding supernatants prepared in a similar way as described in example 2, and the maximum inhibition being defined as the signal obtained in the presence of a saturating concentration of unlabeled Notch1/Fc. N.T.=not tested

For experiment [5], the target named is T3, human Dll1 (human, UniProt O00548 18-723).
T3 construct: whole, on cells
T3 sequence (looked up): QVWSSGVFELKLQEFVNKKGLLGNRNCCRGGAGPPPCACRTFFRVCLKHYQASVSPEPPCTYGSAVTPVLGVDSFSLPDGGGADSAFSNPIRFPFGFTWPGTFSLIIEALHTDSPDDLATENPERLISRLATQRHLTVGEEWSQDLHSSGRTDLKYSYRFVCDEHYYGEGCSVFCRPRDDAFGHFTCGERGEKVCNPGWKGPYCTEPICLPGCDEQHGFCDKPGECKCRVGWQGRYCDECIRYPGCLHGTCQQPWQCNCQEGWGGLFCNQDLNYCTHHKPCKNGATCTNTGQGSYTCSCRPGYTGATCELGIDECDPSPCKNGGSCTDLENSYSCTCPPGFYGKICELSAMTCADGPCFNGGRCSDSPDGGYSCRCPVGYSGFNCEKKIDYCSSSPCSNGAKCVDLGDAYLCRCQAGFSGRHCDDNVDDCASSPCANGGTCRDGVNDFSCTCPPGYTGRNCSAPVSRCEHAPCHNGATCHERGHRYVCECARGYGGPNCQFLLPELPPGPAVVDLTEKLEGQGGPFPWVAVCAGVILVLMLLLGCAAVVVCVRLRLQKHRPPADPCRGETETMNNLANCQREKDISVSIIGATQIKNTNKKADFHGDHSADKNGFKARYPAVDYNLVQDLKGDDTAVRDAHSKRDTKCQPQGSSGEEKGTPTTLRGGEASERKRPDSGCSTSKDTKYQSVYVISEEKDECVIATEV
Kind of experiment: FACS, 15 µg/ml, 293T cells with human Dll1. The procedure, abridged:
(§2)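 Flow cytometry; 1 h antibody staining at 4 °C in PBS/2% FCS. Value = geometric mean fluorescence shift over mock-transfected cells.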

Experiment [6] addresses T3, human Dll1. Kind of experiment: FACS, 15 µg/ml, 293T cells with human Dll1 vs mock. The procedure, abridged: as §2
In experiment [7] the target is T4, human Jagged1 (human, UniProt P78504 34-1218).
T4 construct: whole, on cells
T4 sequence (P78504 34-1218): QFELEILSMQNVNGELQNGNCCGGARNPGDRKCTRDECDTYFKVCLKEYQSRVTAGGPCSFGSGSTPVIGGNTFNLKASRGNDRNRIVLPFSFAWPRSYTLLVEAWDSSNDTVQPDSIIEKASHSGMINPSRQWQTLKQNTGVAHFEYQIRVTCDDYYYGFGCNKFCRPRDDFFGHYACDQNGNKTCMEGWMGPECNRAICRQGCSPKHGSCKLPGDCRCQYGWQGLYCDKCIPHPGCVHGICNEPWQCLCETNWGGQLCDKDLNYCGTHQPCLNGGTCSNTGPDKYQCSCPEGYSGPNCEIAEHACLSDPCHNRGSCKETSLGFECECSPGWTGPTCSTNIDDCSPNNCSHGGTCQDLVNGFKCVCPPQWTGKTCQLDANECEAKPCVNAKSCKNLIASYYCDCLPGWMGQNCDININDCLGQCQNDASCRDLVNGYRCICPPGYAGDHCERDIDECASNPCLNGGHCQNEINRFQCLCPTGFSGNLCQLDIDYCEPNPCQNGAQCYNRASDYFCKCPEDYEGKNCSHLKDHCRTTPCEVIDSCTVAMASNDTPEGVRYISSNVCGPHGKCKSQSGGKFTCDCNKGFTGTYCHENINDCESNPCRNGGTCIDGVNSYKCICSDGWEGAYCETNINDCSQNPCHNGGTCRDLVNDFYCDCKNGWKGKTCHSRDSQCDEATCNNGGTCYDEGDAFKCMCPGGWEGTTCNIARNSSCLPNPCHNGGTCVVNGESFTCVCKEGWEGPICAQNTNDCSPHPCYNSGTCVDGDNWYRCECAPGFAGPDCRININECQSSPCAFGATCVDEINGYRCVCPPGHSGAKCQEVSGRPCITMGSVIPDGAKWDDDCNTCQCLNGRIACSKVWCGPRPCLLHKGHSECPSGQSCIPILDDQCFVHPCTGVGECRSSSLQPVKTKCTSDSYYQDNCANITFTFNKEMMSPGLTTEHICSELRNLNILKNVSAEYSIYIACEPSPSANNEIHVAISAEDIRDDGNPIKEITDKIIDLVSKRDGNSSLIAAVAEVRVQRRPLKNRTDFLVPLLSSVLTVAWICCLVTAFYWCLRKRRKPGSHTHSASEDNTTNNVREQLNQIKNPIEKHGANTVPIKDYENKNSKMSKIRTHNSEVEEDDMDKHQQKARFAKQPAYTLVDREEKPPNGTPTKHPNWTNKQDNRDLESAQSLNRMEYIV
Kind of experiment: FACS, 5 µg/ml, 293T cells with human Jagged1. The procedure, abridged: as §2

Experiment [8] deals with T1, full length human DLL4. Kind of experiment: FMAT, hybridoma supernatant, 293T cells with human DLL4; FMAT, hybridoma supernatant, native full length human DLL4 on live 293T cells, room temperature. How it is done:
Cells diluted in PBS containing 2% FBS were seeded at a density of 3000 expressing and 15000 mock transfected cells per well in 384 well plates (Corning Costar, catalog #3712). Immediately after plating, 15 or 20 μl/well of hybridoma supernatants and 10 μl/well of secondary antibody (Goat anti-human IgG Fc Cy5, final concentration 750 ng/ml) were added and plates incubated for 3 h at room temperature prior to reading the fluorescence on the FMAT 8200 instrument (Applied Biosystems). The binding of human Notch1/Fc chimera (R&D systems, catalog #3647-TK), diluted 1:2 from 2.86 μg/ml was used as a positive control for DLL4 and human Notch3/Fc chimera diluted from 10 μg/ml was used a positive control for binding to Jagged1. Results for 12 hybridoma supernatants showing binding of hybridoma supernatants to human/cynomolgus monkey DLL4 and human Jagged are shown in Table 3.

Experiment [9] addresses T4, human Jagged1. Kind of experiment: FMAT, hybridoma supernatant, 293T cells with human Jagged1. Summed up:
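Transfected 293T cells (3000 expressing plus 15000 mock-transfected per well), in PBS with 2% FBS, were mixed with hybridoma supernatant and Cy5 goat anti-human IgG Fc (750 ng/ml final). After 3 h at room temperature, binding was read by FMAT fluorescence. Notch1/Fc served as positive control for DLL4 and Notch3/Fc for Jagged1.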

For experiment [10], the target named is T4, human Jagged1. In words: FACS, 5 µg/ml, 293T cells with human Jagged1 vs mock. Summed up: as §2
In experiment [11] the target is T1, full length human DLL4. Kind of experiment: FMAT competition, purified antibody vs Alexa-647 human Notch1/Fc, 293T cells with human DLL4. The procedure, abridged: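 293T cells expressing full-length DLL4, mixed with untransfected cells, were preincubated 1 h at 4 °C with serially diluted purified antibody (from 5 μg/ml). Alexa-647 human Notch1/Fc (100 ng/ml stock) was then added for 3 h at 4 °C; bound Notch1/Fc measured by FMAT fluorescence.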

Experiment [12] deals with T1, full length human DLL4. In words: FMAT competition, supernatant vs Alexa-647 human Notch1/Fc, 293T cells with human DLL4; FMAT competition with Alexa-647 human Notch1/Fc, native human DLL4 on 293T cells, 4 C, n = 2. How it is done:
as §1

T1 sequence (Q9NR61 27-685): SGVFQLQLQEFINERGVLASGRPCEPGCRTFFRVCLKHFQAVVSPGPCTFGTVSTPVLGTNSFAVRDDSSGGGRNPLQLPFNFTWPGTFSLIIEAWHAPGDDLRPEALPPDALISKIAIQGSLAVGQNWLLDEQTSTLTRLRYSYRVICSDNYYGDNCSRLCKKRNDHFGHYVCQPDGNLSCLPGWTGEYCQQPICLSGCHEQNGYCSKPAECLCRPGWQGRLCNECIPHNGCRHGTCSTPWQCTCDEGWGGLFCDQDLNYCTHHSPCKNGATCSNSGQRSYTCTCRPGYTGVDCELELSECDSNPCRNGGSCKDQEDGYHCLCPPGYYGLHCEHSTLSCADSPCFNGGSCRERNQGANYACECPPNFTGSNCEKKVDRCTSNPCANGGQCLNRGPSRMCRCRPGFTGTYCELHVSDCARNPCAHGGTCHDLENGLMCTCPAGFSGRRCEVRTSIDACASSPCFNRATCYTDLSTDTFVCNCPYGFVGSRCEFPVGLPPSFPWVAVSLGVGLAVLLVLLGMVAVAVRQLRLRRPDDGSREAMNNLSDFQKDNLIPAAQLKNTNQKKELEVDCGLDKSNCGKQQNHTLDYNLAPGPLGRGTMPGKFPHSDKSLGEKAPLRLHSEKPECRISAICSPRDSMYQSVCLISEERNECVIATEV

B1: 4B4 IgG1 (antibody, V domains shown)
VH: QVLLIQSGAEVKKPGASVQVSCKASGYTFTNYGVIWVRQAPGQGLEYMGWISAYNGNTNYAQKLQDRVTMTSDTSTTTAYMELRSLRSDDTAVYYCARELGSSFDYWGQGTLVTVSS
VL: SYELTQPPSVSVSPGQTARITCSGDALPKKYAYWYQQKSGQAPVLVIYEDIKRPSGIPERFSGSSSGTMATLTISGAQVEDEADYYCFSTDNSGDHSVFGGGTKLTVL
notes: Formatted as IgG1
B1 registered an IC50 with full length human DLL4 [1] of 0.85 nM. In experiment [2], this molecule displayed a Kd of 0.17 nM, a koff of 2.01e-05 s⁻¹ and a kon of 118000 M⁻¹ s⁻¹. In the experiment with full length human DLL4 [3], this molecule showed a Kd of 0.157 nM.

B2: 4B4 IgG2 (antibody, V domains shown)
VH: QVLLIQSGAEVKKPGASVQVSCKASGYTFTNYGVIWVRQAPGQGLEYMGWISAYNGNTNYAQKLQDRVTMTSDTSTTTAYMELRSLRSDDTAVYYCARELGSSFDYWGQGTLVTVSS
VL: SYELTQPPSVSVSPGQTARITCSGDALPKKYAYWYQQKSGQAPVLVIYEDIKRPSGIPERFSGSSSGTMATLTISGAQVEDEADYYCFSTDNSGDHSVFGGGTKLTVL
notes: Formatted as IgG2
As for B2, in the experiment with full length human DLL4 [1], the IC50 worked out at 1.19 nM. In experiment [2], this molecule showed an equilibrium dissociation constant (Kd) of 0.336 nM, a koff of 3.6e-05 s⁻¹ and a kon of 107000 M⁻¹ s⁻¹. In the experiment with full length human DLL4 [3], this molecule yielded a Kd of 0.232 nM.

B3: 20G8 (antibody, IgG4, V domains shown)
VH: QVQLVQSGAEVKKPGASVKVSCKASGYTFTSYGISWVRQAPGQGLEWMGWISVYNGNTNYAQKLQGRVTMTTDTSTSTAYMEVRSLRSDDTAVYYCARDRVPRIPRTTEAFDIWGRGTMVTVCS
VL: QSVLTQPPSASGTPGQRVTISCSGSSSNIGSYYVYWYQQLPGTAPKLLIYRDNQRPSGVPDRFSGSKSGTSASLAIRGLRSDDEADYYCAAWDDSLSGHWVFGGGTKLTVL
notes: Fully human; also used where no isotype is printed
As for B3, in the experiment with full length human DLL4 [4], the “% inhibition n = 3” value was 143%. In addition, the “Dll1/293T X Geo mean” value in the experiment with human Dll1 [5] stood at 40. In addition, the Dll1/mock ratio with human Dll1 [6] was determined as 1.34. In addition, the “Jagged1/293T X Geo mean” value in the experiment with human Jagged1 [7] turned out to be 16. Besides, in the experiment with full length human DLL4 [8], the Count was 182, the FL1 came to 10500 and the FL1 x count came out at 1.9e+06. In addition, in the experiment with human Jagged1 [9], the Count worked out at 3, the FL1 was found to be 1500 and the FL1 x count is 4490. Also, the Jagged1/mock ratio in the experiment with human Jagged1 [10] turned out to be 1.12. Further, in the experiment with full length human DLL4 [11], the “% inhibition at 0.020 nM” value was -5%, the “% inhibition at 0.070 nM” value stood at 3%, the “% inhibition at 0.21 nM” value is -4% and the “% inhibition at 0.62 nM” value is -14%. In the experiment with full length human DLL4 [11], the “% inhibition at 1.9 nM” value was found to be 29%, the “% inhibition at 5.6 nM” value is 114%, the “% inhibition at 16.7 nM” value was determined as 115% and the IC50 worked out at 2.02 nM. Moreover, the “% inhibition n = 2” value with full length human DLL4 [12] worked out at 88%.

B4: 21H3 IgG1 (antibody, V domains shown)
VH: QVQLVQSGAEVKKPGASVKVSCKASGYTFTNYGITWVRQAPGQGPEWMGWISAYNGNTNYAQKLQDRVTVTTDTSTSTAYMELRSLRSDDTAVYYCARDRVPRIPVTTEAFDIWGQGTMVTVSS
VL: QSVLTQPPSASGTPGQRVTISCSGSSSNIGSYFVYWYQQLPGTAPKLLIYRNNQRPSGVPDRFSGSESGTSASLAISGLRSEDEADYYCAAWDDSLSGHWVFGGGTRLTVL
notes: Formatted as IgG1
As for B4, in the experiment with full length human DLL4 [1], the IC50 was 0.57 nM. In addition, in experiment [2], the Kd stood at 0.594 nM, the koff was 0.000171 s⁻¹ and the kon came to 288000 M⁻¹ s⁻¹. Binding with full length human DLL4 [3] was put at a Kd of 0.103 nM.
